Assay [1] deals with NMDA receptor of well-washed rat forebrain membranes (rat) (UniProt Q9R1M7).
For assay [2], the target named is NMDA receptor of primary cultures of rat cerebellar granule cells (rat). Kind of assay: cell-based or functional assay.
Assay [3] deals with NMDA receptor of well-washed rat forebrain membranes (rat) (UniProt Q9R1M7). The assay can be described thus: cell-based or functional assay.
The target is the same in assay [4]. Kind of assay: displacement of [3H]ifenprodil, polyamine-sensitive site. On the technique in general: Displacement assays read how much labelled ligand stays bound in the presence of the test substance.

Read-outs that look alike come from different tables or passages of the source. Bounds are passed on as bounds.

NMDA receptor of well-washed rat forebrain membranes (rat), sequence (Q9R1M7 24-1135): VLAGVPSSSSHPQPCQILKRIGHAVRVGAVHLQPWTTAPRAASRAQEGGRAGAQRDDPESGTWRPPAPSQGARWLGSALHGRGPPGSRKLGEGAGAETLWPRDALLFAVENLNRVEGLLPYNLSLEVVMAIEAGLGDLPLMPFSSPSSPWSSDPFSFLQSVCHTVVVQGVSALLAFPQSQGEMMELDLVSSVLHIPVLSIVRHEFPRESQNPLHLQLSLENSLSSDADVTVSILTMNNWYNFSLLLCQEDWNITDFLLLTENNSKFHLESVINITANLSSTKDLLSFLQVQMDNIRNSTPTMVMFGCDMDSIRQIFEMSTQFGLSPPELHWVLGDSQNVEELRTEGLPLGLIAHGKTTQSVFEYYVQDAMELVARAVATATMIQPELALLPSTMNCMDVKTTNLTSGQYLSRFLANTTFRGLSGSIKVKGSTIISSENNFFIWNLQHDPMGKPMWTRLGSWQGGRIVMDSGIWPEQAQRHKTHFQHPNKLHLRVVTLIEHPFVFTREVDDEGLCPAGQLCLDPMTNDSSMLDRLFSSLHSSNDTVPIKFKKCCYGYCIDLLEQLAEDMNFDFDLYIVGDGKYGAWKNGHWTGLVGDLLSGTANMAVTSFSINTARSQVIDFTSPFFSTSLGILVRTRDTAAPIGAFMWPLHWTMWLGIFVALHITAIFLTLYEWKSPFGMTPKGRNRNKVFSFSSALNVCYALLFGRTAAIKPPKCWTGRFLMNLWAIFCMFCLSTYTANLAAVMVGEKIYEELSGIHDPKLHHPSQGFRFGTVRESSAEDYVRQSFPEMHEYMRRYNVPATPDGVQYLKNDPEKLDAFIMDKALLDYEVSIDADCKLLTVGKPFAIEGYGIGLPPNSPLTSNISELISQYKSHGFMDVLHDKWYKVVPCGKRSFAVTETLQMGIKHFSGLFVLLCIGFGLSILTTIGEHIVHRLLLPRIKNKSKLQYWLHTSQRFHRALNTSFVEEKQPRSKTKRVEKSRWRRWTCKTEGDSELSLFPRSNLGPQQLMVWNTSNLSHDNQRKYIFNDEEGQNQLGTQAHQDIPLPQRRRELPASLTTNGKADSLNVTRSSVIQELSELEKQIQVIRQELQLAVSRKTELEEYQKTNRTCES

In general, IC50 refers to the concentration that gives 50% inhibition. A lower IC50 goes with higher potency. Conantokin-G (peptide): the concentration for half-maximal inhibition (IC50) in assay [1] was more than 5000 nM. This substance also came in with an IC50, inhibition of NMDA-stimulated increases in cyclic GMP formation in assay [2] of 300 nM. Further, in assay [3], the % Inh, spermine-enhanced [3H]MK-801 binding was 100%; the % Sti, [3H]MK-801 binding without spermine is 0%; the IC50, antagonism of Gly-stimulated [3H]MK-801 binding, representative experiment was 835 nM; the IC50, inhibition of spermine-enhanced [3H]MK-801 binding, typical experiment worked out at 275 nM. Further, the IC (µM), inhibition of spermine-enhanced [3H]MK-801 binding in assay [3] amounted to 0.16 µM. In assay [4], the IC50 is more than 5000 nM.

The values above are taken from patent US20030134799A1.
